One assay has as its target Bcl-2を発現しているライセート (UniProt P10415). The assay can be described thus: sandwich ELISA with the commercial reagents (taken as Bcl-2/100 capture, 4D7-biotin detector), lysate. (In an ELISA, binding on a coated surface is turned into a signal by an enzyme label.)
Assay [1] has as its target 10ng/mLのタンパク質サンプル (rBcl-2; R&D Systems or in-house, not stated) (UniProt P10415). The assay can be described thus: sandwich ELISA with the commercial reagents (taken as Bcl-2/100 capture, 4D7-biotin detector), 10 ng/mL protein.

Regarding mAb Bcl-2/100 (antibody), the OD was determined as 0.24 OD in the assay with Bcl-2を発現しているライセート and 0.67 OD in assay [1].

Source of the values: patent JP2021530247A.
